Target: latency-associated peptide (LAP) of TGFβ1 (human (endogenous in human skin fibroblasts)) (UniProt P01137)

mature TGFβ1 ligand (from UniProt P01137 279-390)
luciferase activity of mink lung TGFβ1 reporter cells given heat-treated (80 °C, 10 min) DOC-insoluble fractions of ML-II fibroblasts: 3 fold
